Values of other authors in publication PMC3125604.

Target: Prolactin receptor (site 2) (Homo sapiens) (UniProt P16471)
Test: surface plasmon resonance

Chain of UniProt P16471 (P16471 25-234): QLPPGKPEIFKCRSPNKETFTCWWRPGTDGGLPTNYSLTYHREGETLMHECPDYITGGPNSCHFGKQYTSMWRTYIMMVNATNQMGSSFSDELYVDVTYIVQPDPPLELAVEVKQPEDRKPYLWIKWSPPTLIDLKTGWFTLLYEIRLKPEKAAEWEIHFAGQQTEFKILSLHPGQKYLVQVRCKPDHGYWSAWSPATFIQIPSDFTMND

Prolactin (hPRL) (from UniProt P01236)
Kd: 33 µM
